Read-outs that look alike come from different tables or passages of the source.
Tests used:
[1] = target: human αvβ8 integrin expressed on cells and in tissue (human, UniProt P06756 31-1048; P26012 43-769); test: cell-based or functional assay
[2] = target: T1, recombinantly produced αvβ8 integrin protein (UniProt P06756 31-992; P26012 43-684)
T1 chain 1: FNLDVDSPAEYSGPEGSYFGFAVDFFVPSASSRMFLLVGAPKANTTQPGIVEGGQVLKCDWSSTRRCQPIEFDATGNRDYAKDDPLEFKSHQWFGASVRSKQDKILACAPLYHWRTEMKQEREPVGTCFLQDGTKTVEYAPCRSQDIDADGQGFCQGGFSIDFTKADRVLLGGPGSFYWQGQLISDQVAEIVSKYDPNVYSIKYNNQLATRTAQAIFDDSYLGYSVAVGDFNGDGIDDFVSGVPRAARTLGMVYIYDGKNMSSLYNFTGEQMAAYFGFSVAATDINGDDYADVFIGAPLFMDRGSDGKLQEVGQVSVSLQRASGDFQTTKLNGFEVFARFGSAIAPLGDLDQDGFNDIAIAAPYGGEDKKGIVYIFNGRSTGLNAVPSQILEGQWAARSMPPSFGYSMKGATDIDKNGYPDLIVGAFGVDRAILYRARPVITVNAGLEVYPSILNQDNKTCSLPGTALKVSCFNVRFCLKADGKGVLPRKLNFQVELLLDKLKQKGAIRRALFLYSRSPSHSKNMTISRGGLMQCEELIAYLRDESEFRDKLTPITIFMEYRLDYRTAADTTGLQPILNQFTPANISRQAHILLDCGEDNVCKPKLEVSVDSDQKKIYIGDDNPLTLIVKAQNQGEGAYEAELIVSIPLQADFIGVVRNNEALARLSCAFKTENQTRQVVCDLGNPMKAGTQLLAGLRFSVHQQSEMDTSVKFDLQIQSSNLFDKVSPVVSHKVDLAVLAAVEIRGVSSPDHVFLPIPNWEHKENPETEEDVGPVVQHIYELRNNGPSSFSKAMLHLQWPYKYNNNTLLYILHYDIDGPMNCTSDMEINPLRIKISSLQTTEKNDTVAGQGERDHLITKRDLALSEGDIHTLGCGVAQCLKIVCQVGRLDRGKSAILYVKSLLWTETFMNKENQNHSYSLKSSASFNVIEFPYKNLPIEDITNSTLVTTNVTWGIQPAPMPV
T1 chain 2: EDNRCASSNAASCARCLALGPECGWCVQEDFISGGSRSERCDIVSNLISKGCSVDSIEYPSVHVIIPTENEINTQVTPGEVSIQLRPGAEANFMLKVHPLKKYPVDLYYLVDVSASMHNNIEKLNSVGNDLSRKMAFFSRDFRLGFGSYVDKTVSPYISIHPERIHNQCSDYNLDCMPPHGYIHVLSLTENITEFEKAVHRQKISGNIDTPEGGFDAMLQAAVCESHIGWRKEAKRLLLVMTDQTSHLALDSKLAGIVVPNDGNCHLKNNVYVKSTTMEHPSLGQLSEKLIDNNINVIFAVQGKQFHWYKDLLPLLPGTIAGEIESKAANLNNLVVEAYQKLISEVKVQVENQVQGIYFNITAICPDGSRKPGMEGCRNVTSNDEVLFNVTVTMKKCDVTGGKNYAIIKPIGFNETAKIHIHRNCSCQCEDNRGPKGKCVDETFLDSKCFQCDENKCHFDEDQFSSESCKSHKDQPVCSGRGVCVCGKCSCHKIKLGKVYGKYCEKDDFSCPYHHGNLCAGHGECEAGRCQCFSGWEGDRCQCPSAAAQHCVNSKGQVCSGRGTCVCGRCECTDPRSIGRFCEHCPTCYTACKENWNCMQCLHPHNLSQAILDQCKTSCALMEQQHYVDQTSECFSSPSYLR

[3] = target: T1, recombinantly produced αvβ8 integrin …; test: Biacore
[4] = target: T1, recombinantly produced αvβ8 integrin …; test: Biacore; value is an estimate
[5] = target: T2, recombinantly produced αvβ8 integrin protein (human, UniProt P06756 31-992; P26012 43-684); test: ELISA screening of position 94 mutants
T2 construct: Protein coated on ELISA plates and used in Biacore; also called integrin αvβ8

B1: B5-15 humanized and affinity optimized anti-αvβ8 integrin antibody (antibody, V domains shown)
VH: EVQLVESGGGLVQPGGSLRLSCAVSGFVFSRSWISWVRQAPGKGLEWIGEINPDSSTINYTSSLKDRFTISRDNAKNSLYLQMNSLRAEDTAVYYCAILITTEDYWGQGTTVTVSS
VL: DIQLTQSPSSLSASVGDRVTITCKASQDINKYLSWFQQKPGKAPKSLIYYANRLVDGVPSRFSGSGSGTDFTLTISSLQPEDFATYYCLQYDVFPYTFGGGTKVEIK
B1 was tested. Which “SMAD2/3 phosphorylation in kidney lysates of humanized αvβ8 transgenic mice after UUO (ELISA)” value [1] did it give?
The value was 1.6 fold.

What about the Kd [2] of the same binder?
Its Kd is 0.166 nM.

B2: Chi-37E1B5 chimeric anti-αvβ8 integrin antibody (antibody, V domains shown)
VH: EVQLVESGGGLVQPGGSLNLSCAVSGFVFSRYWMSWVRQAPGKGLEWIGEINPDSSTINYTSSLKDKFIISRDNAKNTLYLQMNKVRSEDTALYYCACLITTEDYWGQGTSVTVSS
VL: EIVLTQSPSSMYASLGERVTIPCKASQDINSYLSWFQQKPGKSPKTLIYYANRLVDGVPSRFSGSGSGQDYSLTISSLEYEDMGIYYCLQYDEFPYTFGGGTKLEIK
Which results are given for B2?
Kd [2]: 0.5 nM; Kd [3]: 0.5 nM

B3: hu37E1B5 anti-αvβ8 integrin antibody (UCSF humanized sequence of WO 2013/026004) (antibody, V domains shown)
VH: EVQLVESGGGLVQPGGSLRLSCAVSGFVFSRYWMSWVRQAPGKGLEWIGEINPDSSTINYTSSLKDRFTISRDNAKNSLYLQMNSLRAEDTAVYYCASLITTEDYWGQGTTVTVSS
VL: EIVLTQSPSSLSLSPGERVTITCKASQDINSYLSWYQQKPGKAPKLLIYYANRLVDGVPARFSGSGSGQDYTLTISSLEPEDFAVYYCLQYDEFPYTFGGGTKLEIK
For B3, which Kd [4] is on record?
The Kd was roughly 490 nM.

B4: MEDI-hu37E1B5-C94I mutant antibody (antibody, V domains shown)
VH: EVQLVESGGGLVQPGGSLRLSCAVSGFVFSRYWMSWVRQAPGKGLEWIGEINPDSSTINYTSSLKDRFTISRDNAKNSLYLQMNSLRAEDTAVYYCAILITTEDYWGQGTTVTVSS
VL: DIQLTQSPSSLSASVGDRVTITCKASQDINSYLSWFQQKPGKAPKSLIYYANRLVDGVPSRFSGSGSGTDFTLTISSLQPEDFATYYCLQYDEFPYTFGGGTKVEIK
notes: IgG; also called humanized anti-αvβ8 integrin antibody C94I
With B4 as the binder, how does the “fold reduction in αvβ8 binding affinity (against MEDI-hu37E1B5 with Cys 94)” value [5] read?
The value was roughly 3 fold.
